Laboratory results taken from patent publication US20130012690.

Target: Tfl-bZip (GCN4 residues 226-281, leucine zipper leucines replaced with 5,5,5-trifluoroleucine) Leu to 5,5,5-trifluoroleucine in the GCN4-p1 dimerization domain (four d-position leucines) (UniProt P03069)
Assay: EMSA

Chain of Tfl-bZip (GCN4 residues 226-281, leucine zipper leucines replaced with 5,5,5-trifluoroleucine) Leu to 5,5,5-trifluoroleucine in the GCN4-p1 dimerization domain (four d-position leucines) (P03069 whole entry, the tested form may be a part): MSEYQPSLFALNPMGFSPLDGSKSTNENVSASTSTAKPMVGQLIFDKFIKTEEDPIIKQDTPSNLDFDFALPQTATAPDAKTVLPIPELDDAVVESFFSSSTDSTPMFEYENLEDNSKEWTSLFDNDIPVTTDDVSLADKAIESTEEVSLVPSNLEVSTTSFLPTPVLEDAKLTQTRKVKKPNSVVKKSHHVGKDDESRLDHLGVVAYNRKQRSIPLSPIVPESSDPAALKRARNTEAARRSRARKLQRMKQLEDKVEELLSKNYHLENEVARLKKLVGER

Row | Sequence | Kd (densitometry of mobility shift assay) | Kd (densitometry, CD at 0 C also shows coil-to-helix transition on DNA binding)
1 | GTGGAGATGACTCATCTCCGG (double strand) [AP-1 site oligonucleotide] | 12.5 nM | 
2 | TGGAGATGACGTCATCTCCT (double strand) [CREB site oligonucleotide] |  | 5.4 nM
